Patent publication US20260167685A1, “NEW MICROPEPTIDE HMBJ AND USE THEREOF” (NANJING ANJI BIOTECHNOLOGY CO., LTD, priority 2023, published 2026)

Assays:
Format in all cases: cell-based
[1] = test system: human hepatic stellate cells LX-2; experiment: inhibitory effect on human liver fibrosis cell model (TGFβ1-stimulated, qPCR); settings: LX-2 cells, 10 nmol recombinant human TGFβ1, different concentrations of synthetic micropeptide, co-incubation 24 h, qPCR (FIG. 11)
Text: (§1) Compared with the related art, this application has the following beneficial effects: • (1) This application provides a lncRNA and a nucleotide sequence thereof. Through analysis of sequencing data for multiple organ fibroses, it is discovered that the lncRNA molecule ENSG00000272654 is expressed at a low level in the organ fibroses. […] The lncRNA molecule can be used for diagnosis or auxiliary diagnosis and treatment or auxiliary treatment of organ fibrosis, or can be used in preparation of a reagent for diagnosis or auxiliary diagnosis and treatment or auxiliary treatment of organ fibrosis. • (2) This application provides a nucleotide sequence of an open reading frame of the lncRNA. The nucleotide sequence can code new micropeptide HMBJ. […] Then, the extracted total RNA is reverse-transcribed by using a reverse transcription reagent, and then mRNA expressions of gene Col1a1, TGFβ1, and CTGF in the three organ fibrosis cell models are detected by real-time fluorescence quantification PCR. […]
In this example, inhibitory effect of the micropeptide HMBJ on a human liver fibrosis cell model was detected. […] Then, the cells were resuspended in a complete medium and counted by using a cell counter. […]

[2] = test system: human non-small cell lung cancer cells A549; experiment: inhibitory effect on human pulmonary fibrosis cell model (TGFβ1-stimulated, qPCR); settings: 10 nmol recombinant human TGFβ1, different concentrations of synthetic micropeptide, co-incubation 24 h, qPCR (FIG. 13)
Text: as §1
Human non-small cell lung cancer cells A549 were cultured in a cell incubator at 37° C. under 5% CO2 until a cell density was 80% or more. […] Then, the cells were resuspended in a complete medium and counted by using a cell counter. […]

[3] = test system: human renal proximal tubule cells HK2; experiment: inhibitory effect on human renal fibrosis cell model (TGFβ1-stimulated, qPCR); settings: 10 nmol recombinant human TGFβ1, different concentrations of synthetic micropeptide, co-incubation 24 h, qPCR (FIG. 12)
Text: as §1
Human renal proximal tubule cells HK2 were cultured in a cell incubator at 37° C. under 5% CO2 until a cell density was 80% or more. […] Then, the cells were resuspended in a complete medium and counted by using a cell counter. […]

Measured: inhibitory effect on mRNA expressions of gene Col1a1, TGFβ1, and CTGF

B1: HMBJ: new human endogenous micropeptide of 71 amino acids (SEQ ID NO. 3) coded by lncRNA ENSG00000272654, made by solid-phase synthesis (peptide, listed as Homo sapiens)
chain: MEAKLRVLVPAETGISETHDEHETFSLSLGSHSATQMNGVTFPHVTLLSLLLRAGPLHNLFKCSQLSLAPT
significant inhibitory effect: [1] | [2] | [3]
